These results are taken from article PMC13750308 (2026).

The target of assay [1] is Centrobin peptide motif (Homo sapiens) (UniProt Q8N137). Particulars: cited from earlier work.
Assay [2] has as its target T1, Cep192 IDR+ASH8 (Homo sapiens, UniProt Q8TEP8).
T1 chain: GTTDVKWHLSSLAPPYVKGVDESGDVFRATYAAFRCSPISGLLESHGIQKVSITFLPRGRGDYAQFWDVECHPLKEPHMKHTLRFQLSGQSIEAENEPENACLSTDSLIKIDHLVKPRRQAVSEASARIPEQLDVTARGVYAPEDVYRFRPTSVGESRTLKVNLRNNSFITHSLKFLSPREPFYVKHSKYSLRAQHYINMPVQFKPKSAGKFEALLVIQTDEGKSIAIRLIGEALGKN
Description: GFP-Trap bead supernatant depletion pull-down with western blot. For orientation: In western blotting, separated proteins are transferred to a membrane and probed.

As for TRIM37 MATH (from UniProt O94972), in assay [1], the Kd was 14 µM.

B1: TRIM37 (protein)
chain: MDEQSVESIAEVFRCFICMEKLRDARLCPHCSKLCCFSCIRRWLTEQRAQCPHCRAPLQLRELVNCRWAEEVTQQLDTLQLCSLTKHEENEKDKCENHHEKLSVFCWTCKKCICHQCALWGGMHGGHTFKPLAEIYEQHVTKVNEEVAKLRRRLMELISLVQEVERNVEAVRNAKDERVREIRNAVEMMIARLDTQLKNKLITLMGQKTSLTQETELLESLLQEVEHQLRSCSKSELISKSSEILMMFQQVHRKPMASFVTTPVPPDFTSELVPSYDSATFVLENFSTLRQRADPVYSPPLQVSGLCWRLKVYPDGNGVVRGYYLSVFLELSAGLPETSKYEYRVEMVHQSCNDPTKNIIREFASDFEVGECWGYNRFFRLDLLANEGYLNPQNDTVILRFQVRSPTFFQKSRDQHWYITQLEAAQTSYIQQINNLKERLTIELSRTQKSRDLSPPDNHLSPQNDDALETRAKKSACSDMLLEGGPTTASVREAKEDEEDEEKIQNEDYHHELSDGDLDLDLVYEDEVNQLDGSSSSASSTATSNTEENDIDEETMSGENDVEYNNMELEEGELMEDAAAAGPAGSSHGYVGSSSRISRRTHLCSAATSSLLDIDPLILIHLLDLKDRSSIENLWGLQPRPPASLLQPTASYSRKDKDQRKQQAMWRVPSDLKMLKRLKTQMAEVRCMKTDVKNTLSEIKSSSAASGDMQTSLFSADQAALAACGTENSGRLQDLGMELLAKSSVANCYIRNSTNKKSNSPKPARSSVAGSLSLRRAVDPGENSRSKGDCQTLSEGSPGSSQSGSRHSSPRALIHGSIGDILPKTEDRQCKALDSDAVVVAVFSGLPAVEKRRKMVTLGANAKGGHLEGLQMTDLENNSETGELQPVLPEGASAAPEEGMSSDSDIECDTENEEQEEHTSVGGFHDSFMVMTQPPDEDTHSSFPDGEQIGPEDLSFNTDENSGR
In the case of B1, in assay [2], the Kd amounted to 0.075 µM.

As usually defined, the Kd is the concentration at which binding is half-saturated.
